Here are results for seven molecules from article PMC5562876, “The integration of Gβ and MAPK signaling cascade in zygote development” (Scientific Reports, 2017).

The chains are these.
B1: AGG2 (purified, pull-down) (natural protein, Arabidopsis thaliana, UniProt Q93V47 1-100, looked up)
chain: MEAGSSNSSGQLSGRVVDTRGKHRIQAELKRLEQEARFLEEELEQLEKMDNASASCKEFLDSVDSKPDPLLPETTGPVNATWDQWFEGPKEAKRCGCSIL
notes: AGG2, G protein gamma subunit 2, Arabidopsis thaliana, At3G22942; fusion protein; source: E. coli, purified (glutathione agarose beads)
B2: GPA1 (purified, pull-down) (natural protein, Arabidopsis thaliana, UniProt P18064 1-383, looked up)
chain: MGLLCSRSRHHTEDTDENTQAAEIERRIEQEAKAEKHIRKLLLLGAGESGKSTIFKQIKLLFQTGFDEGELKSYVPVIHANVYQTIKLLHDGTKEFAQNETDSAKYMLSSESIAIGEKLSEIGGRLDYPRLTKDIAEGIETLWKDPAIQETCARGNELQVPDCTKYLMENLKRLSDINYIPTKEDVLYARVRTTGVVEIQFSPVGENKKSGEVYRLFDVGGQRNERRKWIHLFEGVTAVIFCAAISEYDQTLFEDEQKNRMMETKELFDWVLKQPCFEKTSFMLFLNKFDIFEKKVLDVPLNVCEWFRDYQPVSSGKQEIEHAYEFVKKKFEELYYQNTAPDRVDRVFKIYRTTALDQKLVKKTFKLVDETLRRRNLLEAGLL
notes: GPA1, G protein alpha subunit, Arabidopsis thaliana, At2G26300; fusion protein; also called WtGPA1; source: E. coli, purified (glutathione agarose beads)
B3: GPA1^Q222L (purified, pull-down) (natural protein, Arabidopsis thaliana, UniProt P18064 1-383, looked up)
chain: B2 chain with Q222L
notes: GPA1, G protein alpha subunit, Arabidopsis thaliana, At2G26300, with Q222L; fusion protein; source: E. coli, purified (glutathione agarose beads)
B4: MKK5 (purified, pull-down) (natural protein, Arabidopsis thaliana, UniProt Q8RXG3 1-348, looked up)
chain: MKPIQSPSGVASPMKNRLRKRPDLSLPLPHRDVALAVPLPLPPPSSSSSAPASSSAISTNISAAKSLSELERVNRIGSGAGGTVYKVIHTPTSRPFALKVIYGNHEDTVRRQICREIEILRSVDHPNVVKCHDMFDHNGEIQVLLEFMDQGSLEGAHIWQEQELADLSRQILSGLAYLHRRHIVHRDIKPSNLLINSAKNVKIADFGVSRILAQTMDPCNSSVGTIAYMSPERINTDLNHGRYDGYAGDVWSLGVSILEFYLGRFPFAVSRQGDWASLMCAICMSQPPEAPATASQEFRHFVSCCLQSDPPKRWSAQQLLQHPFILKATGGPNLRQMLPPPRPLPSAS
notes: MKK5, MAP kinase kinase 5, Arabidopsis thaliana, At3G21220; source: E. coli, purified (glutathione agarose beads)
B5: MKK4 (purified, pull-down) (natural protein, Arabidopsis thaliana, UniProt O80397 1-366, looked up)
chain: MRPIQSPPGVSVPVKSRPRRRPDLTLPLPQRDVSLAVPLPLPPTSGGSGGSSGSAPSSGGSASSTNTNSSIEAKNYSDLVRGNRIGSGAGGTVYKVIHRPSSRLYALKVIYGNHEETVRRQICREIEILRDVNHPNVVKCHEMFDQNGEIQVLLEFMDKGSLEGAHVWKEQQLADLSRQILSGLAYLHSRHIVHRDIKPSNLLINSAKNVKIADFGVSRILAQTMDPCNSSVGTIAYMSPERINTDLNQGKYDGYAGDIWSLGVSILEFYLGRFPFPVSRQGDWASLMCAICMSQPPEAPATASPEFRHFISCCLQREPGKRRSAMQLLQHPFILRASPSQNRSPQNLHQLLPPPRPLSSSSSPTT
notes: MKK4, MAP kinase kinase 4, Arabidopsis thaliana, At1G51660; source: E. coli, purified (glutathione agarose beads)
B6: AGG1 (purified, pull-down) (natural protein, Arabidopsis thaliana, UniProt Q9FDX9 1-98, looked up)
chain: MREETVVYEQEESVSHGGGKHRILAELARVEQEVAFLEKELKEVENTDIVSTVCEELLSVIEKGPDPLLPLTNGPLNLGWDRWFEGPNGGEGCRCLIL
notes: AGG1, G protein gamma subunit 1, Arabidopsis thaliana, At3G63420; fusion protein; source: E. coli, purified (glutathione agarose beads)
B7: AGB1 (purified, pull-down) (natural protein, Arabidopsis thaliana, UniProt P49177 1-377, looked up)
chain: MSVSELKERHAVATETVNNLRDQLRQRRLQLLDTDVARYSAAQGRTRVSFGATDLVCCRTLQGHTGKVYSLDWTPERNRIVSASQDGRLIVWNALTSQKTHAIKLPCAWVMTCAFSPNGQSVACGGLDSVCSIFSLSSTADKDGTVPVSRMLTGHRGYVSCCQYVPNEDAHLITSSGDQTCILWDVTTGLKTSVFGGEFQSGHTADVLSVSISGSNPNWFISGSCDSTARLWDTRAASRAVRTFHGHEGDVNTVKFFPDGYRFGTGSDDGTCRLYDIRTGHQLQVYQPHGDGENGPVTSIAFSVSGRLLFAGYASNNTCYVWDTLLGEVVLDLGLQQDSHRNRISCLGLSADGSALCTGSWDSNLKIWAFGGHRRVI
notes: AGB1, G protein beta subunit, Arabidopsis thaliana, At4G34460; source: E. coli, purified (glutathione agarose beads)

Holding throughout (assay): pull-down; purified fusion proteins from E. coli incubated with glutathione agarose beads, 25 mM Tris-HCl pH 7.5, 100 mM NaCl, 1 mM DTT, 1 hr; seven washes with 0.1% Triton X-100; eluted with 15 mM GSH; immunoblot
Common to all, as to settings: both partners purified
(Immunoblotting shows a protein as a band on a membrane.)

For assay [1], the target named is T1, MPK6 (purified, pull-down) (Arabidopsis thaliana, UniProt Q39026 1-395).
T1 construct: MPK6, MAP kinase 6, Arabidopsis thaliana, At2G43790; fusion protein; source: E. coli, purified (glutathione agarose beads)
T1 sequence (Q39026 whole entry, the tested form may be a part): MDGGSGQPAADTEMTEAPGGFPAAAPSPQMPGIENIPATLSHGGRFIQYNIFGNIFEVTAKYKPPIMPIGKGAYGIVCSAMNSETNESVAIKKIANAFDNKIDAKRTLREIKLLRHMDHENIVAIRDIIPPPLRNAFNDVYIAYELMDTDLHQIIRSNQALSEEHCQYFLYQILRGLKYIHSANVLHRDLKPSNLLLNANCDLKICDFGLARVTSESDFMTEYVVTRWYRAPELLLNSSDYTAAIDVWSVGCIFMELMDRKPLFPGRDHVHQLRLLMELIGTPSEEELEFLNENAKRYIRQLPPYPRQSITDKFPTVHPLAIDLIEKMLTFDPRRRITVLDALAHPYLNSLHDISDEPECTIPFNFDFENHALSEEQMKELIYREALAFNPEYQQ

Assay [2] concerns the target B4.
Assay [3] has as its target B5.
For assay [4], the target named is B7.

Changes are numbered by the printed parent chain. Names and notes keep the numbering of the source.

For the molecule B1, the binding result in assay [1], in assay [2] and in assay [3] was “binds” in each case.
On to B2, for which the binding result in assay [1] is listed as “binds”.
The same measure, in the same setting: next, B3: “binds”.
Turning to B4, the binding result in assay [4] was “binds”.
Take B5: the binding result in assay [4] was “binds”.
Consider B6, for which the binding result in assay [1], in assay [2] and in assay [3] was “binds” in each case.
Take B7: the binding result in assay [1] is reported as “binds”.
